Results as given in patent publication US20080108135A1 (University of California, published 2008).
Read-outs that look alike come from different tables or passages of the source.

Columns and labels:
[1] = biological target: ErbB2 on tumor cell lines (SKBR3, SK-OV-3, MCF7) (UniProt P04626); test: 5.0 × 10^11 phage on about 1.0 × 10^5 SKBR3 cells at 37 C, surface bound phage eluted with low pH glycine, titered on E. coli TG1
[2] = biological target: ErbB2 on tumor cell lines (SKBR3, SK-OV-3, MCF7) (UniProt P04626); test: cell-based or functional assay
[3] = biological target: ErbB2 on tumor cell lines (SKBR3, SK-OV-3, MCF7) (UniProt P04626)
[4] = biological target: T1, ErbB2 (form in the assay not stated) (UniProt P04626 23-1255); test: method not stated
T1 construct: also called c-erbB-2

[5] = biological target: T1, ErbB2 (form in the assay not stated); test: competition by flow cytometry, panel 'C1 phage binding': soluble scFv inhibits binding of C1 phage; % of maximal MFI

For C6.5 diabody phage, the titer of cell surface bound phage, 1st glycine wash [1] was 1.8e+07 phage titer, the titer of cell surface bound phage, 2nd glycine wash [1] was 2.8e+06 phage titer and the Lysed cell fraction (titer of internalized phage), SKBR3 cells [2] was 1.7e+07 phage titer. For the same molecule, the cells with internalized phage, confocal microscopy, SKBR3 cells [2] was 20 % of cells.

Work on “C6.5 phage (anti-ErbB2 C6.5 scFv displayed on phage)” yielded a titer of cell surface bound phage, 1st glycine wash [1] of 1.2e+07 phage titer, a titer of cell surface bound phage, 2nd glycine wash [1] of 5.2e+06 phage titer and a Lysed cell fraction (titer of internalized phage), SKBR3 cells [2] of 6.8e+07 phage titer.

C6.5cys scFv conjugated to liposomes gave a Total uptake of scFv-conjugated liposomes by SKBR3 cells [2] of 3.4 and a share of the liposome uptake that was internalized, SKBR3 cells [2] of 70%.

irrelevant anti-Botulinum phage (scFv) showed a titer of cell surface bound phage, 1st glycine wash [3] of 600000 phage titer, a titer of cell surface bound phage, 2nd glycine wash [3] of 100000 phage titer and a Lysed cell fraction (titer of internalized phage), SKBR3 cells [2] of 600000 phage titer.

B1: F5 scFv (native purified soluble scFv) (scFv, not shown: small tags and cut ends)
scFv: QVQLVESGGGLVQPGGSLRLSCAASGFTFRSYAMSWVRQAPGKGLEWVSAISGRGDNTYYADSVKGRFTISRDNSKNTLYLQMNSLRAEDTAVYYCAKMTSNAFAFDYWGQGTLVTVSSGGGGSGGGGSGGGGSQSVLTQPPSVSGAPGQRVTISCTGSSSNIGAGYGVHWYQQLPGTAPKLLIYGNTNRPSGVPDRFSGFKSGTSASLAITGLQAEDEADYYCQSYDSSLSGWVFGGGTKLTVLG
notes: also called 3TF5; scFv-F5
For B1, the Kd [4] was 320 nM and the “IC50 (read off the curve)” value [5] was roughly 200 nM.
